In this test the target is Tripartite Motif Protein 28 (TRIM28), endogenous in HEK293T cells (UniProt Q13263). The experiment in a line: co-immunoprecipitation (anti-FLAG IP, western blot band quantification). As to conditions: for percent of parent (rel. (PIV2-V = 100)): HEK293T cells transfected for 24 hours, n = 3, parent: 100, read off a plot.
UniProt Q13263, sequence (Q13263 whole entry): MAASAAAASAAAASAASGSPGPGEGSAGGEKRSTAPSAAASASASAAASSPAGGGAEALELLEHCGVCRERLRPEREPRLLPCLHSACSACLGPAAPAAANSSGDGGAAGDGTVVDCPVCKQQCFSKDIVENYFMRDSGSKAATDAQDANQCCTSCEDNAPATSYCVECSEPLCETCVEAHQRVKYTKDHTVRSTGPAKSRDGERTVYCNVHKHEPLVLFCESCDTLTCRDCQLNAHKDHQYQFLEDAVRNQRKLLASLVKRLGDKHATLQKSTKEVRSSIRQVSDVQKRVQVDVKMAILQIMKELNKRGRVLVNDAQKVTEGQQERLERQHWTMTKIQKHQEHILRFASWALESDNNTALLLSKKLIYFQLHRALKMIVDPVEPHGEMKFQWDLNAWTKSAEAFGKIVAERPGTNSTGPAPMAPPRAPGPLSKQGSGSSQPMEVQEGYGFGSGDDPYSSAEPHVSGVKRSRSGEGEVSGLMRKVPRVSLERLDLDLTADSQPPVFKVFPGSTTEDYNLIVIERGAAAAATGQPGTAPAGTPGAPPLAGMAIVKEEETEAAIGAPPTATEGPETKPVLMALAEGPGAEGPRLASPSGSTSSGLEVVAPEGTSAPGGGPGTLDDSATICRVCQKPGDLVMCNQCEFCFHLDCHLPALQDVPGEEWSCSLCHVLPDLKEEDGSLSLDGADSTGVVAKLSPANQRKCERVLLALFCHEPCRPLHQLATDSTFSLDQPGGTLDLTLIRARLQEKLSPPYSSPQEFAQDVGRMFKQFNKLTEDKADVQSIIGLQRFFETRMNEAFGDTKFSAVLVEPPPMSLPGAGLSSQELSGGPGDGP

For the substance “FLAG-tagged full-length PIV2-V (pCMV7.1_3xFlag) (from UniProt P19847) A181G”, the percent of parent (rel. (PIV2-V = 100)) came out at 110.

For the substance “FLAG-tagged full-length PIV2-V (pCMV7.1_3xFlag) (from UniProt P19847) F190T”, the percent of parent (rel. (PIV2-V = 100)) was determined as 130.

For the substance “FLAG-tagged full-length PIV2-V (pCMV7.1_3xFlag) (from UniProt P19847) Q186E”, the percent of parent (rel. (PIV2-V = 100)) came out at 130.

Turning to “FLAG-tagged full-length PIV2-V (pCMV7.1_3xFlag) (from UniProt P19847) W178Y”, the percent of parent (rel. (PIV2-V = 100)) turned out to be 50.

As to “FLAG-tagged full-length PIV5-V (pCMV7.1_3xFlag) (from UniProt P11207) Y175W”, the percent of parent (rel. (PIV5-V = 100)) (n = 3, parent: 100, read off a plot) amounted to 310.

The record behind these values is article PMC12431652.
